# T1: 4H675-AA
# T1 chain: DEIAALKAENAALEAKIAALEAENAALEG
# T2: 4H3446-AA
# T2 chain: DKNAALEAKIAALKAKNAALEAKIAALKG
# T3: 4H3029-AA
# T3 chain: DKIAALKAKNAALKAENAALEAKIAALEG
# T4: 4H391-AA
# T4 chain: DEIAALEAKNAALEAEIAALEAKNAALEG
# T5: 4H3666-AA
# T5 chain: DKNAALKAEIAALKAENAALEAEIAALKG
# T6: 4H3939-AA
# T6 chain: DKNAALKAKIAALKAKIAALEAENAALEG
# T7: 4H3709-AA
# T7 chain: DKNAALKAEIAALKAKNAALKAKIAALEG
# T8: 4H497-AA
# T8 chain: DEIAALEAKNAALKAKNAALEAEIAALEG
# T9: 4H3066-AA
# T9 chain: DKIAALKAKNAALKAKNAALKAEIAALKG
# T10: 4H971-AA
# T10 chain: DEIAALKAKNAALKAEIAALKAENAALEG
# T11: 4H3121-AA
# T11 chain: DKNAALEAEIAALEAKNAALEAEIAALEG
# T12: 4H3591-AA
# T12 chain: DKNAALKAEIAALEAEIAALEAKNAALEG
# T13: 4H3417-AA
# T13 chain: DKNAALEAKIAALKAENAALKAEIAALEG
# T14: 4H478-AA
# T14 chain: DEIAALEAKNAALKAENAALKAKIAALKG
# T15: 4H3628-AA
# T15 chain: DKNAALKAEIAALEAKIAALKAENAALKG
# T16: 4H3102-AA
# T16 chain: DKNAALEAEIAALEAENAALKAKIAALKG
# T17: 4H428-AA
# T17 chain: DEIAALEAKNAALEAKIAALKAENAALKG
# T18: 4H3920-AA
# T18 chain: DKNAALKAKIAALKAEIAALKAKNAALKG
# T19: 4H656-AA
# T19 chain: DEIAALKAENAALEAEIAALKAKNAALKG
# T20: 4H906-bA
# T20 chain: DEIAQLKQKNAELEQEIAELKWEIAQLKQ
# T21: 4H850-bA
# T21 chain: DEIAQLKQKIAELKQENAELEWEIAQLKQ
# T22: 4H619-bA
# T22 chain: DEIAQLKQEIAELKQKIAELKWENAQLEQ
# T23: 4H687-bH
# T23 chain: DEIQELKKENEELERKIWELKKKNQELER
# T24: 4H918-bH
# T24 chain: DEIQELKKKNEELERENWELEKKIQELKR
# T25: 4H72-bH
# T25 chain: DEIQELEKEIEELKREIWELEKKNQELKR
# T26: 4H717-bH
# T26 chain: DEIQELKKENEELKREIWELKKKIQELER
# T27: 4H908-bH
# T27 chain: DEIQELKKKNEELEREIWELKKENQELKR
# T28: 4H607-bH
# T28 chain: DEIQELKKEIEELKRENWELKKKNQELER
# T29: 4H3855-bH
# T29 chain: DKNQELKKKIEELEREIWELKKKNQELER
# T30: 4H967-bH
# T30 chain: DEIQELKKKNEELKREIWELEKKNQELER
# T31: 4H454-bH
# T31 chain: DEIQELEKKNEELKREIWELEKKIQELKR
# T32: O8-bA
# T32 chain: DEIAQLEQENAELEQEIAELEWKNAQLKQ
# T33: 4H568-bH
# T33 chain: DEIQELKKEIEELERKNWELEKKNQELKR
# T34: 4H883-bH
# T34 chain: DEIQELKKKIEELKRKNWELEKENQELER
# T35: 4H4001-bH
# T35 chain: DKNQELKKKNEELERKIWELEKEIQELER
# T36: 4H797-bH
# T36 chain: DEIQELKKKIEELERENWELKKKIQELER
# T37: 4H953-bH
# T37 chain: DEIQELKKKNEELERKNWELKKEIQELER
# T38: 4H968-bN
# T38 chain: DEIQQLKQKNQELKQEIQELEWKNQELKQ
# T39: 4H797-bN
# T39 chain: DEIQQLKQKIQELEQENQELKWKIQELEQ
# T40: 4H754-bN
# T40 chain: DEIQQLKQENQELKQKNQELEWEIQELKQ
# T41: 4H780-bN
# T41 chain: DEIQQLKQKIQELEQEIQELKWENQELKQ
# T42: 4H683-bN
# T42 chain: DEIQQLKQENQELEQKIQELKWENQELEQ
# T43: 4H855-bN
# T43 chain: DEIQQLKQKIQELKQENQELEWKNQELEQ
# T44: 4H953-bN
# T44 chain: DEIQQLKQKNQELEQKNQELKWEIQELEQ
# T45: 4H918-bN
# T45 chain: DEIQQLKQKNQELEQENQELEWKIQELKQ
# T46: 4H575-bN
# T46 chain: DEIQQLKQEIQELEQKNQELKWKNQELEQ
# T47: 4H457-bN
# T47 chain: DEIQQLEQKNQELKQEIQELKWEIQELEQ
# Key:
# 4H675-AA = target: T1, 4H675-AA; assay: two-hybrid library CCmax; conditions: mean of both orientations;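 also: natural log of median RNA to DNA barcode read ratio; higher means stronger binding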
# 4H3446-AA = target: T2, 4H3446-AA; assay: two-hybrid library CCmax; conditions: mean of both orientations;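 also: natural log of median RNA to DNA barcode read ratio; higher means stronger binding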
# 4H3029-AA = target: T3, 4H3029-AA; assay: two-hybrid library CCmax; conditions: mean of both orientations;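 also: natural log of median RNA to DNA barcode read ratio; higher means stronger binding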
# 4H391-AA = target: T4, 4H391-AA; assay: two-hybrid library CCmax; conditions: mean of both orientations;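 also: natural log of median RNA to DNA barcode read ratio; higher means stronger binding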
# 4H3666-AA = target: T5, 4H3666-AA; assay: two-hybrid library CCmax; conditions: mean of both orientations;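 also: natural log of median RNA to DNA barcode read ratio; higher means stronger binding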
# 4H3939-AA = target: T6, 4H3939-AA; assay: two-hybrid library CCmax; conditions: mean of both orientations;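 also: natural log of median RNA to DNA barcode read ratio; higher means stronger binding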
# 4H3709-AA = target: T7, 4H3709-AA; assay: two-hybrid library CCmax; conditions: mean of both orientations
# 4H497-AA = target: T8, 4H497-AA; assay: two-hybrid library CCmax; conditions: mean of both orientations
# 4H3066-AA = target: T9, 4H3066-AA; assay: two-hybrid library CCmax; conditions: mean of both orientations
# 4H971-AA = target: T10, 4H971-AA; assay: two-hybrid library CCmax; conditions: mean of both orientations
# 4H3121-AA = target: T11, 4H3121-AA; assay: two-hybrid library CCmax; conditions: mean of both orientations
# 4H3591-AA = target: T12, 4H3591-AA; assay: two-hybrid library CCmax; conditions: mean of both orientations
# 4H3417-AA = target: T13, 4H3417-AA; assay: two-hybrid library CCmax; conditions: mean of both orientations
# 4H478-AA = target: T14, 4H478-AA; assay: two-hybrid library CCmax; conditions: mean of both orientations
# 4H3628-AA = target: T15, 4H3628-AA; assay: two-hybrid library CCmax; conditions: mean of both orientations
# 4H3102-AA = target: T16, 4H3102-AA; assay: two-hybrid library CCmax; conditions: mean of both orientations
# 4H428-AA = target: T17, 4H428-AA; assay: two-hybrid library CCmax; conditions: mean of both orientations
# 4H3920-AA = target: T18, 4H3920-AA; assay: two-hybrid library CCmax; conditions: mean of both orientations
# 4H656-AA = target: T19, 4H656-AA; assay: two-hybrid library CCmax; conditions: mean of both orientations
# 4H906-bA = target: T20, 4H906-bA; assay: two-hybrid library CCNG1
# 4H850-bA = target: T21, 4H850-bA; assay: two-hybrid library CCNG1
# 4H619-bA = target: T22, 4H619-bA; assay: two-hybrid library CCNG1
# 4H687-bH = target: T23, 4H687-bH; assay: two-hybrid library CCNG1
# 4H918-bH = target: T24, 4H918-bH; assay: two-hybrid library CCNG1
# 4H72-bH = target: T25, 4H72-bH; assay: two-hybrid library CCNG1
# 4H717-bH = target: T26, 4H717-bH; assay: two-hybrid library CCNG1
# 4H908-bH = target: T27, 4H908-bH; assay: two-hybrid library CCNG1
# 4H607-bH = target: T28, 4H607-bH; assay: two-hybrid library CCNG1
# 4H3855-bH = target: T29, 4H3855-bH; assay: two-hybrid library CCNG1
# 4H967-bH = target: T30, 4H967-bH; assay: two-hybrid library CCNG1
# 4H454-bH = target: T31, 4H454-bH; assay: two-hybrid library CCNG1
# O8-bA = target: T32, O8-bA; assay: two-hybrid library CCNG1
# 4H568-bH = target: T33, 4H568-bH; assay: two-hybrid library CCNG1
# 4H883-bH = target: T34, 4H883-bH; assay: two-hybrid library CCNG1
# 4H4001-bH = target: T35, 4H4001-bH; assay: two-hybrid library CCNG1
# 4H797-bH = target: T36, 4H797-bH; assay: two-hybrid library CCNG1
# 4H953-bH = target: T37, 4H953-bH; assay: two-hybrid library CCNG1
# 4H968-bN = target: T38, 4H968-bN; assay: two-hybrid library CCNG1
# 4H797-bN = target: T39, 4H797-bN; assay: two-hybrid library CCNG1
# 4H754-bN = target: T40, 4H754-bN; assay: two-hybrid library CCNG1
# 4H780-bN = target: T41, 4H780-bN; assay: two-hybrid library CCNG1
# 4H683-bN = target: T42, 4H683-bN; assay: two-hybrid library CCNG1
# 4H855-bN = target: T43, 4H855-bN; assay: two-hybrid library CCNG1
# 4H953-bN = target: T44, 4H953-bN; assay: two-hybrid library CCNG1
# 4H918-bN = target: T45, 4H918-bN; assay: two-hybrid library CCNG1
# 4H575-bN = target: T46, 4H575-bN; assay: two-hybrid library CCNG1
# 4H457-bN = target: T47, 4H457-bN; assay: two-hybrid library CCNG1
binder,measurement,setting,value
DKIAALKAKNAALEAKIAALKAKNAALEG [4H2991-AA],interaction score,4H675-AA,-0.186
same,interaction score,4H3446-AA,-1.73
same,interaction score,4H3029-AA,-1.76
same,interaction score,4H391-AA,1.52
same,interaction score,4H3666-AA,-1.01
same,interaction score,4H3939-AA,-1.71
same,interaction score,4H3709-AA,-1.43
same,interaction score,4H497-AA,-1.91
same,interaction score,4H3066-AA,-1.81
same,interaction score,4H971-AA,-0.98
same,interaction score,4H3121-AA,1.28
same,interaction score,4H3591-AA,-1.47
same,interaction score,4H3417-AA,-1.68
same,interaction score,4H478-AA,-1.87
same,interaction score,4H3628-AA,-1.99
same,interaction score,4H3102-AA,-0.548
same,interaction score,4H428-AA,-0.913
same,interaction score,4H3920-AA,-1.73
same,interaction score,4H656-AA,-0.731
DEIAQLKQEIAELKQKIAELKWENAQLEQ [4H619-bA],interaction score,4H906-bA,-1.09
same,interaction score,4H850-bA,-0.446
same,interaction score,4H619-bA,-0.211
DKNQELKKKIEELEREIWELKKKNQELER [4H3855-bH],interaction score,4H687-bH,-0.688
same,interaction score,4H918-bH,-0.471
same,interaction score,4H72-bH,-1.07
same,interaction score,4H717-bH,-0.607
same,interaction score,4H908-bH,-1.26
same,interaction score,4H607-bH,-1.71
same,interaction score,4H3855-bH,-1.88
same,interaction score,4H967-bH,-0.847
same,interaction score,4H454-bH,0.744
same,interaction score,O8-bA,-2.06
same,interaction score,4H568-bH,-2.56
same,interaction score,4H883-bH,0.413
same,interaction score,4H4001-bH,1.02
same,interaction score,4H797-bH,-0.875
same,interaction score,4H953-bH,-0.861
DEIQQLKQEIQELEQKNQELKWKNQELEQ [4H575-bN],interaction score,4H968-bN,-0.976
same,interaction score,4H797-bN,-1.51
same,interaction score,4H754-bN,-2.08
same,interaction score,4H780-bN,-0.38
same,interaction score,4H683-bN,0.443
same,interaction score,4H855-bN,0.475
same,interaction score,4H953-bN,0.476
same,interaction score,4H918-bN,0.56
same,interaction score,4H575-bN,-0.842
DEIQQLEQKNQELKQEIQELKWEIQELEQ [4H457-bN],interaction score,4H968-bN,-1.86
same,interaction score,4H797-bN,-1.31
same,interaction score,4H754-bN,-0.487
same,interaction score,4H780-bN,-1.08
same,interaction score,4H683-bN,-0.914
same,interaction score,4H855-bN,-2.15
same,interaction score,4H457-bN,-1.6
same,interaction score,4H953-bN,-0.785
same,interaction score,4H918-bN,-1.24
same,interaction score,4H575-bN,-0.989
